The source of these data is article PMC2988878 (Nature structural & molecular biology, 2010).

For data set [1], the target named is Pup (Mycobacterium tuberculosis) (UniProt P9WHN5). Nature of the data set: anisotropy. To be noted: cited from earlier work.
In data set [2] the target is T1, Mycobacterium proteasomal ATPase Mpa, residues 1-234 (Mpa1-234) (Mycobacterium tuberculosis, UniProt P9WQN5 1-234).
T1 sequence: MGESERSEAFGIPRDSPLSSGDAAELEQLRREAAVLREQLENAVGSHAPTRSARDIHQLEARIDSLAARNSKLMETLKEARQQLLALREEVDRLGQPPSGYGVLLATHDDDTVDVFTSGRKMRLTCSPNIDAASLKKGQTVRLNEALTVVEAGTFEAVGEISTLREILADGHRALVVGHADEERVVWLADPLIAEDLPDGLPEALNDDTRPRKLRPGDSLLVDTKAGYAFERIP
Kind of data set: crystal structure.

Data set [3] deals with the molecule itself. Nature of the data set: crystal structure.

Values joined by “and” are separate entries in the source; they are usually repeats but may differ in a detail not shown here. Identical values can stand only once.

As for Mpa (from UniProt P9WQN5), in data set [1], the Kd (commonly the equilibrium constant for the complex coming apart) was 4.2 µM and 3.4 µM.

B1: Full-length prokaryotic ubiquitin-like protein, Pup1-64-GGQ with a C-terminal non-cleavable His6-tag (natural protein)
chain: MAQEQTKRGGGGGDDDDIAGSTAAGQERREKLTEETDDLLDEIDDVLEENAEDFVRAYVQKGGQ
As for B1, the binding result in data set [2] is “binds”.

B2: Mpa coiled-coil domain, residues 46-96 (Mpa46-96) (domain or fragment)
chain: SHAPTRSARDIHQLEARIDSLAARNSKLMETLKEARQQLLALREEVDRLGQ
For B2, in data set [3], the stoichiometry N (in general, a count of units in the complex or per binding partner) was determined as 2.
